The target in data set [1] is TERM-foldon three-way connector (Methanocaldococcus jannaschii | bacteriophage T4) (UniProt P10104). The data set can be described thus: SDS-PAGE without heating; refolded three-way connector dialyzed against PBS, SDS loading buffer added, incubated at 25-100 °C for 5 min, 10-20% gradient SDS-PAGE; the foldon trimer resists SDS.
Data set [2] deals with the molecule itself. The data set can be described thus: negative-stain TEM; proteins refolded together at varying molar ratios, diluted in PBS to 20 μg/ml, on carbon/formvar grids, 2% uranyl acetate.

In turn, “TERM-foldon three-way connector (from UniProt P10104 2-81)” showed a stoichiometry N in data set [1] of 3.

B1: γ-prefoldin (γPFD), wild type (natural protein, Methanocaldococcus jannaschii, UniProt Q58064 1-147, looked up)
chain: MVNEVIDINEAVRAYIAQIEGLRAEIGRLDATIATLRQSLATLKSLKTLGEGKTVLVPVGSIAQVEMKVEKMDKVVVSVGQNISAELEYEEALKYIEDEIKKLLTFRLVLEQAIAELYAKIEDLIAEAQQTSEEEKAEEEENEEKAE
notes: γ-prefoldin (γPFD), filamentous prefoldin-family chaperone of the hyperthermophile Methanocaldococcus jannaschii; wild type; Assembles into filaments of variable length through the β-sheets X1 and X2; also called γPFD filaments; γPFD subunits
Take B1: in data set [2], the binding result is reported as “binds”.

The stoichiometry N is a count of units in the complex or per binding partner.

(Values after publication PMC4895442, “Geometrical assembly of ultrastable protein templates for nanomaterials” (Nature Communications, 2016).)
